The source of these data is US20240043519A1 (OHIO STATE INNOVATION FOUNDATION, published 2024).

Assay [1] addresses T1, NOTCH1 (human, UniProt P46531 19-2555).
T1 construct: whole, on cells; Endogenous protein from cell lysates (antibody array, co-IP); also called NOTCH1 protein
Nature of the assay: co-immunoprecipitation, THP-1 cells and human AML patient blasts (figure legend).
Protocol: (§1) Cell lysate of 10×10⁶ THP-1 cells or 5×10⁶ human AML patient blasts (n=2) were subjected to CO-IP with Protein G Plus/Protein A agarose beads.
(§2) Cells (1-5×10⁶) were lysed in 400 μl of Pierce Co-Immunoprecipitation lysis buffer (Thermo Scientific) supplemented with protease and phosphatase inhibitors (Roche). Cell lysis was performed on ice for 20 min and the cell lysate was sonicated for 5 sec three times. After centrifugation with 14,000 g at 4° C. for 15 min, the cell lysate supernatant was transferred to new tubes immediately and added to 50% Protein G Plus/Protein A agarose beads (EMD Millipore, Tremecula, CA, USA) with a ratio of 100 μl for a lml sample solution. After incubation with rotation at 4° C. for 1 h, and the mixture was centrifuged at 14,000 g for 10 min at 4° C. The supernatant was transferred to new tubes, added with 2-20 μg antibody and incubated on rotating shaker at 4° C. overnight. After centrifugation, the supernatant was incubated with 50 μl proteinA/G agarose at 4° C. with rotation for 2 h. The agarose beads were washed five times with ice-cold Pierce Co-Immunoprecipitation lysis buffer. Then 20 μl 2×loading buffer was added, boiled for 5 min and subjected to Western blotting. The corresponding normal antibodies were applied as negative control for CO-IP.

Assay [2] deals with T2, NOTCH2 (human, UniProt Q04721 26-2471).
T2 construct: whole, on cells; Endogenous protein from cell lysates (co-IP); also called NOTCH2 protein
The description is as above.
Protocol: as §1, §2

T2 sequence (Q04721 26-2471): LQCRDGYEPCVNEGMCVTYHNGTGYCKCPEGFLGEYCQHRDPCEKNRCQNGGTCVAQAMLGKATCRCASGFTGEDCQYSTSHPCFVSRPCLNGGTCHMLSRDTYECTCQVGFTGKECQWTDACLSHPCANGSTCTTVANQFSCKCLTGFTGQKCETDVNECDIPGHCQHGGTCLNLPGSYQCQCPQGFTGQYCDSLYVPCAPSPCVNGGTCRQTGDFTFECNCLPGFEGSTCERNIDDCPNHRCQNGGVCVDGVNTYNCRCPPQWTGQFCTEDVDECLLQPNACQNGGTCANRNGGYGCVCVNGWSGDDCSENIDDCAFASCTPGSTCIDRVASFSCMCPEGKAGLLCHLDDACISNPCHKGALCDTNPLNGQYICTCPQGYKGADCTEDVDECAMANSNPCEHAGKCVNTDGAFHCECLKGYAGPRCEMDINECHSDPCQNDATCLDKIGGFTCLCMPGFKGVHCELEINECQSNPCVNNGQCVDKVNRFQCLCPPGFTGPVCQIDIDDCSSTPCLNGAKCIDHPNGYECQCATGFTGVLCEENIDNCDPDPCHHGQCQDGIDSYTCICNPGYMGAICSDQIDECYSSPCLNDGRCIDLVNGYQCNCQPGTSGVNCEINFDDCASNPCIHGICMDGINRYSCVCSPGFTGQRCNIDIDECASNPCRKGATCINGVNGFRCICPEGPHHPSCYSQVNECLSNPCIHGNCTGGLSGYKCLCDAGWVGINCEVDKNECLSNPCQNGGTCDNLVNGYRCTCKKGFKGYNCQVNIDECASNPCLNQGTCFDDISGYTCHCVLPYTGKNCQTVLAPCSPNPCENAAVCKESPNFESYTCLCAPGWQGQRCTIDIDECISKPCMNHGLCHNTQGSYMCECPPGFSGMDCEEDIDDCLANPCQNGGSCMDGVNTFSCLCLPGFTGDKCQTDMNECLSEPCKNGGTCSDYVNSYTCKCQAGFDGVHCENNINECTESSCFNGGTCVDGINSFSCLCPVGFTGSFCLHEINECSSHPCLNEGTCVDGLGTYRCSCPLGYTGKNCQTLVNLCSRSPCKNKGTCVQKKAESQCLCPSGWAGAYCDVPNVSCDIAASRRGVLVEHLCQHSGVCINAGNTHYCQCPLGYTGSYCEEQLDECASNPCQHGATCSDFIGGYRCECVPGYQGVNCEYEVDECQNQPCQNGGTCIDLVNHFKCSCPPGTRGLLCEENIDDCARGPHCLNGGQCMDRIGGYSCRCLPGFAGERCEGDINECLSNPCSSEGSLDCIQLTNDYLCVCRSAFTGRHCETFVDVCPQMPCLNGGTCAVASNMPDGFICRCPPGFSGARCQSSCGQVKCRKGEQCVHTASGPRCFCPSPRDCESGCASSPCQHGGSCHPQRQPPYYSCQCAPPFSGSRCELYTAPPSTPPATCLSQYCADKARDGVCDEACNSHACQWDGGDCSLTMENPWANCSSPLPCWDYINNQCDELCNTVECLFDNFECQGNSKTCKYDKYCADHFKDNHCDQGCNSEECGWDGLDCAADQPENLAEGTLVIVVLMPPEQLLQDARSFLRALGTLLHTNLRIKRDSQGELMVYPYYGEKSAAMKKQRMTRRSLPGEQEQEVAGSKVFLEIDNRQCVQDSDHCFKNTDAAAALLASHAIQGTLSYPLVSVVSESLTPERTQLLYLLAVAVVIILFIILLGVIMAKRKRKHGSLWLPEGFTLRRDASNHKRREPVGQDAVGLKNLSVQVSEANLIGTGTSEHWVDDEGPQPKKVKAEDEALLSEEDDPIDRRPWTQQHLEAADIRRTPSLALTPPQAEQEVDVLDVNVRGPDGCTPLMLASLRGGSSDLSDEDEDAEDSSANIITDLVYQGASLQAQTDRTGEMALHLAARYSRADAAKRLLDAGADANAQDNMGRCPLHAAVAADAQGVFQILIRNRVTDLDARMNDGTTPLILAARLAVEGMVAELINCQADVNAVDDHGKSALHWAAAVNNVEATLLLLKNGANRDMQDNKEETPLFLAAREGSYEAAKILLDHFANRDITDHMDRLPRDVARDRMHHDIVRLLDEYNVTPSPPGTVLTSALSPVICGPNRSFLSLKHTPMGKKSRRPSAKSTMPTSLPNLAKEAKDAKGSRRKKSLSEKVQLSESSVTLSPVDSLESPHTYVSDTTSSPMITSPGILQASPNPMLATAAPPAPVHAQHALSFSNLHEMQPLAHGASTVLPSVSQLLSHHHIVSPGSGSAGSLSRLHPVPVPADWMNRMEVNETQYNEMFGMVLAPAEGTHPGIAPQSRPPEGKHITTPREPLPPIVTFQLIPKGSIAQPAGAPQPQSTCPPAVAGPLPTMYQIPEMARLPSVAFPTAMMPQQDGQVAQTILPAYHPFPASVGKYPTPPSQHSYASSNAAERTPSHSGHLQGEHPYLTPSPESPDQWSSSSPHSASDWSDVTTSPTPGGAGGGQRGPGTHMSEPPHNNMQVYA

B1: EGFL7 protein (endogenous, in lysates of human AML cells: Kasumi-1, THP-1, primary AML patient blasts) (ligand)
chain: TEHAYRPGRRVCAVRAHGDPVSESFVQRVYQPFLTTCDGHRACSTYRTIYRTAYRRSPGLAPARPRYACCPGWKRTSGLPGACGAAICQPPCRNGGSCVQPGRCRCPAGWRGDTCQSDVDECSARRGGCPQRCVNTAGSYWCQCWEGHSLSADGTLCVPKGGPPRVAPNPTGVDSAMKEEVQRLQSRVDLLEEKLQLVLAPLHSLASQALEHGLPDPGSLLVHSFQQLGRIDSLSEQISFLEEQLGSCSCKKDS
notes: Endogenous protein immunoprecipitated from cell lysates; also called Epidermal growth factor-like domain 7
For B1, the binding result in assay [1] and in assay [2] was “binds” each time.
